Test results: US20100260765A1 (AstraZeneca / MedImmune, published 2010)

Assays:
[1] = biological target: KDR endogenously expressed on human umbilical vein endothelial cells (HUVEC) (human, UniProt P35968 20-1356); assay: cell-based or functional assay
[2] = biological target: T1, soluble KDR extracellular domain (ECD) (Calbiochem) (human, UniProt P35968 20-764); assay: High Antigen ELISA, KDR coat 500 ng/mL, supernatant 1:25
T1 construct: extracellular domain; Bought protein; also called KDR-ECD; VEGF Receptor 2 D1-7, Cat. #676490
T1 sequence (P35968 20-764): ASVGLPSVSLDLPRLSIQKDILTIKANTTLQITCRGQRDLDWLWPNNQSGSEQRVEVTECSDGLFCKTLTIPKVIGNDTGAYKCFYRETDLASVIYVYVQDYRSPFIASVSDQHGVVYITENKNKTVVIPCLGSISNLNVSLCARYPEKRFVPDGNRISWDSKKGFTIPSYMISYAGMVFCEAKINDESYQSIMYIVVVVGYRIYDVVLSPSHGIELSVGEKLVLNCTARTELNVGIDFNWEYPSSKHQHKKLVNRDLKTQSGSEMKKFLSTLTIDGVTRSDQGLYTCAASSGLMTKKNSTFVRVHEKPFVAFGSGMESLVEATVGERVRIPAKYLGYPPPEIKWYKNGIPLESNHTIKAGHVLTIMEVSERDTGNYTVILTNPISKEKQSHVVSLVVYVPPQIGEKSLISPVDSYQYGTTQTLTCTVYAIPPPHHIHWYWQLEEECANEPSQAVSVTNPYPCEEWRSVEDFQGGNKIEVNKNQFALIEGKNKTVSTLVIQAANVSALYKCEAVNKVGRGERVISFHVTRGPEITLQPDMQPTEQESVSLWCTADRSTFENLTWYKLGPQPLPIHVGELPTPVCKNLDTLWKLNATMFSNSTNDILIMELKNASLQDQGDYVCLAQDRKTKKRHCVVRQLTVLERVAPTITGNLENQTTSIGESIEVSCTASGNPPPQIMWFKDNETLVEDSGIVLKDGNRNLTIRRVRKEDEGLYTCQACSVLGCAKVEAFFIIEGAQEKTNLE
Experimental: (§1) ELISA plates were coated with a greater amount of KDR (at 500 ng/mL) in comparison with the Limited Antigen Quantitation assay described below. Sample containing antibody (Ab) was titrated on the KDR-coated ELISA plates and was incubated overnight at 4° C. to allow Ab binding to approach equilibrium. Titration of Ab in sample covered a dilution range of 1:25 to 1:18,225. A standard curve of KDR-specific antibody of known concentration was used to define the linear range of the assay. Data within the linear range were used to derive the relative concentration of KDR-specific Ab in each titrated sample. The high KDR concentration and the overnight incubation limited the effect of Ab affinity, allowing quantitation of the relative amount of KDR-specific Ab present in each sample.

[3] = biological target: T1, soluble KDR extracellular domain (ECD) …; assay: High Antigen ELISA, KDR coat 500 ng/mL, supernatant 1:75
Experimental: as §1

[4] = biological target: T1, soluble KDR extracellular domain (ECD) …; assay: High Antigen ELISA, KDR coat 500 ng/mL, supernatant 1:225
Experimental: as §1

[5] = biological target: T1, soluble KDR extracellular domain (ECD) …; assay: High Antigen ELISA, KDR coat 500 ng/mL, supernatant 1:675
Experimental: as §1

[6] = biological target: T1, soluble KDR extracellular domain (ECD) …; assay: High Antigen ELISA, KDR coat 500 ng/mL, supernatant 1:2025
Experimental: as §1

[7] = biological target: T1, soluble KDR extracellular domain (ECD) …; assay: High Antigen ELISA, KDR coat 500 ng/mL, supernatant 1:6075
Experimental: as §1

[8] = biological target: T1, soluble KDR extracellular domain (ECD) …; assay: Limited Antigen ELISA, KDR coat 25 ng/mL, supernatant 1:25
Experimental: (§2) Samples containing one concentration of antibody (Ab) (1:25 dilution) were incubated overnight to allow Ab binding to approach equilibrium. The low antigen concentration limited the effect of antibody concentration, allowing ranking of the antibodies based on their relative affinity.

[9] = biological target: T1, soluble KDR extracellular domain (ECD) …; assay: Limited Antigen ELISA, KDR coat 50 ng/mL, supernatant 1:25
Experimental: as §2

[10] = biological target: T1, soluble KDR extracellular domain (ECD) …; assay: High Antigen ELISA, KDR coat 500 ng/mL, supernatant 1:18,225
Experimental: as §1

[11] = biological target: T1, soluble KDR extracellular domain (ECD) …; assay: Limited Antigen ELISA, KDR coat 12.5 ng/mL, supernatant 1:25
Experimental: as §2

[12] = biological target: T1, soluble KDR extracellular domain (ECD) …; assay: Limited Antigen ELISA, KDR coat 6.25 ng/mL, supernatant 1:25
Experimental: as §2

[13] = biological target: T1, soluble KDR extracellular domain (ECD) …; assay: Limited Antigen ELISA, KDR coat 3.125 ng/mL, supernatant 1:25
Experimental: as §2

Chain of KDR endogenously expressed on human umbilical vein endothelial cells (HUVEC) (P35968 20-1356): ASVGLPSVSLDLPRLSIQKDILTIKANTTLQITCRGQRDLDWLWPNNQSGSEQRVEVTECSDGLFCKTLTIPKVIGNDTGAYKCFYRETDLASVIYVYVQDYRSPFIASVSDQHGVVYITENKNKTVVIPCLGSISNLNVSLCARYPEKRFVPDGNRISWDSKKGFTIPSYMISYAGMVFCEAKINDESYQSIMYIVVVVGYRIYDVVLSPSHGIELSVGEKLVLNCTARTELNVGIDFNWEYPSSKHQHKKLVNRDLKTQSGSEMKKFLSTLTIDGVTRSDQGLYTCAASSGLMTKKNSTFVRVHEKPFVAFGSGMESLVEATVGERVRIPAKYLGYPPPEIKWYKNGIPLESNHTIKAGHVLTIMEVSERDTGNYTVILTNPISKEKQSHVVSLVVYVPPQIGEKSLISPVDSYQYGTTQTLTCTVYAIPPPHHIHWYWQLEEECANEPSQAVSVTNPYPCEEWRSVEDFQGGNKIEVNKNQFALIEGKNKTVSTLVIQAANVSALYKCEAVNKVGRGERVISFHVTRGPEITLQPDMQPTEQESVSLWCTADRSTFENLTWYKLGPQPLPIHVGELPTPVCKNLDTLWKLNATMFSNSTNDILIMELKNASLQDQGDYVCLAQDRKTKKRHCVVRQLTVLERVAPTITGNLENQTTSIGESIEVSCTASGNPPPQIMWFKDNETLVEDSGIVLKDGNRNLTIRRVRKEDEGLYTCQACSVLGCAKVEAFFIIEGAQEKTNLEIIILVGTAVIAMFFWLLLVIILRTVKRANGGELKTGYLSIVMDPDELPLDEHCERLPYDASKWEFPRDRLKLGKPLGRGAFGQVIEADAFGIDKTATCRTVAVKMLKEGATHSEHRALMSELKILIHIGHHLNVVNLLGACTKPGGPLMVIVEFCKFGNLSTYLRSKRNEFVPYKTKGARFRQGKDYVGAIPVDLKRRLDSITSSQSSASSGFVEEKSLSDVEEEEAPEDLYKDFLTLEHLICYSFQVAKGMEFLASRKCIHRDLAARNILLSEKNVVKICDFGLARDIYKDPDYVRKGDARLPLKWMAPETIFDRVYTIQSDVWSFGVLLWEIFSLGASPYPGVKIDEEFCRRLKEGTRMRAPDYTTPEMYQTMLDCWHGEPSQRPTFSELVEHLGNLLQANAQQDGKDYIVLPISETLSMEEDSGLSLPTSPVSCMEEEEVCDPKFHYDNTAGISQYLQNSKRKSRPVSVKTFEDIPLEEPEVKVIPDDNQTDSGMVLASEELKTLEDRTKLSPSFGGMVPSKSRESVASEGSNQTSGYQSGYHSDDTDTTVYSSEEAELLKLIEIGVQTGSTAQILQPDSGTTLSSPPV

Row | Binder | VEGF-E-mediated Survival % Inhibition (Average) [1] [%] | VEGF-E-mediated Survival % Inhibition (n = 1) [1] [%] | VEGF-E-mediated Survival % Inhibition (n = 2) [1] [%] | ELISA reading [2] | ELISA reading [3] | ELISA reading [4] | ELISA reading [5] | ELISA reading [6] | ELISA reading [7] | ELISA reading [8] | ELISA reading [9] | ELISA reading [10] | ELISA reading [11] | ELISA reading [12] | ELISA reading [13]
1 | 33D5 (antibody, V domains shown, Fully human mAb from XenoMouse hybridoma, tested as hybridoma supernatant) VH: QVQLVQSGAEVKKPGASVKVSCKASGYTFGSYDINWVRQATGQGLEWMGWMNPNSGNTGYAQKFQGRVTLTRNTSIRTVYMELSSLRSEDTAVYYCARGGYSNLGWFDPWGQGSLVTVSS VL: DIQMTQSPSSVSVSVGDRVTITCRASQGISSWLAWYQQKPGKAPKLLIYAASSLQSGVPSRFSGSGSGTDFTLTISSLQPEDFATYYCQQANSFPFTFGPGTKVDIK | 0 | -2 | 2 | 4.61 | 4.56 | 4.78 | 6 | 3.65 | 1.7 | 2.2 | 3.81 | 0.87 | 1.32 | 0.61 | 0.33
2 | 32B2 (antibody, V domains shown, Fully human mAb from XenoMouse hybridoma, tested as hybridoma supernatant) VH: EVQLLESGGGLVQPGGSLRLSCAASGFTFSNYAMSWVRQAPGKGLDWVSAISGRGGSTYYADSVKGRFTISRDNSKNTLFLLMNSLRAEDTAVYYCAKASGDDWGQGTLVTVSS VL: not shown | -6 | -2 | -9 | 6 | 6 | 6 | 6 | 3.33 | 1.54 | 1.69 | 2.9 | 0.8 | 0.86 | 0.42 | 0.25
3 | 29A11 (antibody, V domains shown, Fully human mAb from XenoMouse hybridoma, tested as hybridoma supernatant) VH: EVQLLESGGGLVQPGGSLRLSCAASGFTFSNYAMNWVRQAPGKGLEWVSAISGGGGNTYYADSVKGRFTISRDNSKNTLYLQMNRLRAEDTAVYYCAKASGDDWGQGTLVTVSS VL: not shown | 5 | 8 | 1 | 4.66 | 6 | 6 | 5.09 | 4.33 | 2.16 | 1.9 | 3.43 | 0.99 | 1.05 | 0.59 | 0.3
4 | 30E3 (antibody, V domains shown, Fully human mAb from XenoMouse hybridoma, tested as hybridoma supernatant) VH: EVQLLESGGGLVQPGGSLRLSCAASGFTFSNYALSWVRQAPGKGLEWVSAISGSGRNTYYADSVKGRFTLSRDNSKNTLFLQMNSLRAEDTAVYYCAKASGDNWGQGTLVTVSS VL: not shown | -14 | -21 | -7 | 6 | 4.78 | 4.45 | 2.12 | 0.86 | 0.32 | 1.37 | 2.71 | 0.18 | 0.73 | 0.43 | 0.24
5 | 30H10 (antibody, V domains shown, Fully human mAb from XenoMouse hybridoma, tested as hybridoma supernatant) VH: EVQLLESGGGLVQPGGSLRLSCAASGFTFSNYAMSWVRQAPGKGLEWVSAISGSGGITYYADSVKGRFTISRDNSKNTLFLQMNSLRAEDTAVYYCAKASGDNWGQGTLVSVSS VL: not shown | -10 | -21 | 2 | 4.42 | 6 | 6 | 4.61 | 2.52 | 1.18 | 1.18 | 2.21 | 0.64 | 0.52 | 0.31 | 0.17
6 | 32C11 (antibody, V domains shown, Fully human mAb from XenoMouse hybridoma, tested as hybridoma supernatant) VH: EVQLLESGGTLVQPGGSLRLSCAASGFTFSNYAMSWVRQAPGKGLEWVSAISGRAGSTYYADSVKGRFTISRDNSKNTLFLQMNSLRAEDTAVYYCAKASGDDWGQGTLVTVSS VL: not shown | 6 | 5 | 7 | 4.36 | 6 | 4.28 | 2.02 | 0.82 | 0.27 | 1.12 | 2.48 | 0.14 | 0.69 | 0.35 | 0.2
7 | 30F6 (antibody, V domains shown, Fully human mAb from XenoMouse hybridoma, tested as hybridoma supernatant) VH: QVQLVESGGGVVQPGRSLRLSCAASGFTFSTYGMHWVRQAPGKGLEWVAVIWYDGSNKYYADSVKGRFTISRDNSKNTLYLQMNSLRAEDTAVYYCACSYWNDDYYYGMDVWGQGTTVTVSS VL: DIQMTQSPSSLSASVGDRVIITCRASQNISSYLIWYQQKPGKAPNLLIHTTSSLQRGVPSRFSGSGSGTDFTLTISSLQPEDFATYYCQQSYSAPLTFGGGTKVEIK | 37 | 31 | 43 | 3.04 | 3.12 | 2.42 | 0.93 | 0.35 | 0.16 | 0.31 | 0.52 | 0.09 | 0.25 | 0.13 | 0.1
8 | 31E11 (antibody, V domains shown, Fully human mAb from XenoMouse hybridoma, tested as hybridoma supernatant) VH: QVQLVESGGGLVKPGGSLRLSCAASGFTFSDYYMSWIRQAPGKGLEWVSYISISGSTIYYADSVKGRFTISRDNAKNSLYLQMNSLRAEDTAVYYCARDDFWSGYYFNWFDPWGQGTLVTVSS VL: DIQMTQSPSSLSASVGDRVTITCRANQTISTFLNWYQQNPGKAPKLLIYAASSLQSGVPSRFSGSGSGTDFTLTISSLQPEDFATYYCQQTYIIPLTFGGGTKVEIK | 55 | 56 | 54 | 4.48 | 6 | 4.61 | 3.6 | 1.81 | 0.62 | 1.24 | 2.37 | 0.31 | 0.68 | 0.39 | 0.2
9 | 33E1 (antibody, V domains shown, Fully human mAb from XenoMouse hybridoma, tested as hybridoma supernatant) VH: QVQLQESGPGLVKPSQTLSLTCTVSGGSISSGDHYWSWIRQHPGKGLEWIGHIYYSGSTDYNPSLKSRVTISVDTSKNHFSLKLNSVTAADTAVYYCARTNSSSWSDWYFDLWGRGTLVTVSS VL: DIVMTQSPDSLAVSLGERATINCKSSQSILYSSNNKNYLAWYQRKPGQPPILLIHWASTRESGVPDRFSGSGSRTDFTLTISSLQAEDVAVYYCQQYFITPWTFGQGTKVEIK | 60 | 66 | 54 | 4.06 | 4.24 | 4.07 | 3.51 | 2.09 | 0.98 | 0.36 | 0.85 | 0.49 | 0.15 | 0.11 | 0.07
